Measured values: patent US20100280227A1 (Genentech, published 2010)
Read-outs that look alike come from different tables or passages of the source.

B2: mouse BR3 extracellular domain (receptor)
chain: MGARRLRVRSQRSRDSSVPTQCNQTECFDPLVRNCVSCELFHTPDTGHTSSLEPGTALQPQEGS
notes: also called mBR3-ECD; mBR-ECD

What was measured:
[1] = target: T1, murine BR3 expressed on cells (mouse, UniProt Q9D8D0 1-175); experiment: BHK cells expressing murine BR3, competitive binding assay against BAFF
T1 construct: whole, on cells; also called murine BR3 on BHK cells; mouse BR3
T1 sequence (looked up): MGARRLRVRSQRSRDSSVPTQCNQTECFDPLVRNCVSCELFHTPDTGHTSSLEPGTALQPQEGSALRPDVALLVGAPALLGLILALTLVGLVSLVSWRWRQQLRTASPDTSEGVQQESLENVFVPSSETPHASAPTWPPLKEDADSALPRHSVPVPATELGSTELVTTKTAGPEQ

[2] = target: T2, human BR3 expressed on cells (human, UniProt Q96RJ3 1-184); experiment: BJAB cells, direct binding
T2 construct: whole, on cells; also called BR3 on BJAB cells; cell surface BR3

[3] = target: T3, mouse BR3 (form in the mapping assay not stated) (mouse, UniProt Q9D8D0 1-71, limits assumed); experiment: competition ELISA on murine BR3 against biotinylated B9C11
T3 construct: May be the same as m2, m6 or m10
T3 sequence (looked up): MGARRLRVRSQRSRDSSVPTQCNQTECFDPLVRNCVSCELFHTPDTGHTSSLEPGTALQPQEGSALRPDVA

[4] = target: T2, human BR3 expressed on cells; experiment: BJAB cells, competition with biotin-BAFF
[5] = target: human BR3 displayed on phage, mutated at A22 in the alanine scan (human, UniProt Q96RJ3 1-61, limits assumed); experiment: shotgun alanine scan of phage-displayed BR3; F against wild type;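 also: Phage-displayed BR3 shotgun alanine libraries, two selection rounds for anti-BR3 antibody binding, normalized to a display selection, F above 1 marks a harmful substitution, below 1 a beneficial one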
[6] = target: T4, human BR3 displayed on phage, R39 alanine-scan mutant (human, UniProt Q96RJ3 1-61, limits assumed); experiment: as above
T4 construct: One position of the shotgun alanine scan of BR3 on phage

[7] = target: T5, human BR3 displayed on phage, T40 alanine-scan mutant (human, UniProt Q96RJ3 1-61, limits assumed); experiment: as above
T5 construct: One position of the shotgun alanine scan of BR3 on phage

[8] = target: human BR3 displayed on phage, mutated at A34 in the alanine scan (human, UniProt Q96RJ3 1-61, limits assumed); experiment: as above
[9] = target: T6, human BR3 displayed on phage, E23 alanine-scan mutant (human, UniProt Q96RJ3 1-61, limits assumed); experiment: as above
T6 construct: One position of the shotgun alanine scan of BR3 on phage

[10] = target: T7, human BR3 displayed on phage, L37 alanine-scan mutant (human, UniProt Q96RJ3 1-61, limits assumed); experiment: as above
T7 construct: One position of the shotgun alanine scan of BR3 on phage

[11] = target: T8, human BR3 displayed on phage, P21 alanine-scan mutant (human, UniProt Q96RJ3 1-61, limits assumed); experiment: as above
T8 construct: One position of the shotgun alanine scan of BR3 on phage

[12] = target: T9, human BR3 displayed on phage, P41 alanine-scan mutant (human, UniProt Q96RJ3 1-61, limits assumed); experiment: as above
T9 construct: One position of the shotgun alanine scan of BR3 on phage

[13] = target: T10, human BR3 displayed on phage, R42 alanine-scan mutant (human, UniProt Q96RJ3 1-61, limits assumed); experiment: as above
T10 construct: One position of the shotgun alanine scan of BR3 on phage

[14] = target: T11, human BR3 displayed on phage, L38 alanine-scan mutant (human, UniProt Q96RJ3 1-61, limits assumed); experiment: as above
T11 construct: One position of the shotgun alanine scan of BR3 on phage

[15] = target: T12, human BR3 displayed on phage, V33 alanine-scan mutant (human, UniProt Q96RJ3 1-61, limits assumed); experiment: as above
T12 construct: One position of the shotgun alanine scan of BR3 on phage

[16] = target: T13, human BR3 displayed on phage, T17 alanine-scan mutant (human, UniProt Q96RJ3 1-61, limits assumed); experiment: as above
T13 construct: One position of the shotgun alanine scan of BR3 on phage; the F value gives the effect of this change against wild type; See m1 for the parent

[17] = target: T14, human BR3 displayed on phage, F25 alanine-scan mutant (human, UniProt Q96RJ3 1-61, limits assumed); experiment: as above
T14 construct: One position of the shotgun alanine scan of BR3 on phage

[18] = target: T15, human BR3 displayed on phage, P18 alanine-scan mutant (human, UniProt Q96RJ3 1-61, limits assumed); experiment: as above
T15 construct: One position of the shotgun alanine scan of BR3 on phage

[19] = target: T16, human BR3 displayed on phage, V29 alanine-scan mutant (human, UniProt Q96RJ3 1-61, limits assumed); experiment: as above
T16 construct: One position of the shotgun alanine scan of BR3 on phage

[20] = target: T17, human BR3 displayed on phage, L27 alanine-scan mutant (human, UniProt Q96RJ3 1-61, limits assumed); experiment: as above
T17 construct: One position of the shotgun alanine scan of BR3 on phage

[21] = target: T18, human BR3 displayed on phage, L28 alanine-scan mutant (human, UniProt Q96RJ3 1-61, limits assumed); experiment: as above
T18 construct: One position of the shotgun alanine scan of BR3 on phage

[22] = target: T19, human BR3 displayed on phage, G36 alanine-scan mutant (human, UniProt Q96RJ3 1-61, limits assumed); experiment: as above
T19 construct: One position of the shotgun alanine scan of BR3 on phage

[23] = target: T20, human BR3 displayed on phage, H31 alanine-scan mutant (human, UniProt Q96RJ3 1-61, limits assumed); experiment: as above
T20 construct: One position of the shotgun alanine scan of BR3 on phage

[24] = target: T21, human BR3 displayed on phage, V20 alanine-scan mutant (human, UniProt Q96RJ3 1-61, limits assumed); experiment: as above
T21 construct: One position of the shotgun alanine scan of BR3 on phage

[25] = target: T22, human BR3 displayed on phage, D26 alanine-scan mutant (human, UniProt Q96RJ3 1-61, limits assumed); experiment: as above
T22 construct: One position of the shotgun alanine scan of BR3 on phage

[26] = target: B2; experiment: SPR, IgG on chip, BR3 ECD in solution
[27] = target: T23, human BR3 extracellular domain (human, UniProt Q96RJ3 1-61); experiment: SPR, IgG on chip, BR3 ECD in solution
T23 construct: biotinylated where used as tracer; also called hBR3-ECD; BR3-ECD

[28] = target: T3, mouse BR3 (form in the mapping assay …); experiment: competition ELISA on murine BR3 against biotinylated V3-1m
[29] = target: T2, human BR3 expressed on cells; experiment: BJAB cells, competition with biotin-BAFF; remark: listed apart in the source
[30] = target: T2, human BR3 expressed on cells; experiment: BJAB cells, direct binding; remark: listed apart in the source
V3-46 N31Q phage clone = target: T24, V3-46 N31Q phage clone; experiment: phage competition ELISA, ECD in solution (printed Phage ID50)
T24 construct: also called V3-46q
T24 sequence (VH, as listed by the source, chain 1 of 2): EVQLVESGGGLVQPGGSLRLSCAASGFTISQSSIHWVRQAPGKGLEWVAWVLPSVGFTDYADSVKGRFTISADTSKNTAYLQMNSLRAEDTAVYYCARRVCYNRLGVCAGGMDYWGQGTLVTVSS
T24 sequence (VL, as listed by the source, chain 2 of 2): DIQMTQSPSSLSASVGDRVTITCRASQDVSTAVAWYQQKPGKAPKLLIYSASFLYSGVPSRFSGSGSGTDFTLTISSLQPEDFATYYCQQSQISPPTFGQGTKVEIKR

V3-46 phage clone = target: T25, V3-46 phage clone; experiment: as above
T25 construct: also called V3-46 WT; clone 46

V3-46 N31A phage clone = target: T26, V3-46 N31A phage clone; experiment: as above
T26 construct: also called V3-46a

V3-46s Fab [31] = target: T27, V3-46s Fab; experiment: as above
T27 construct: N31S mutant of V3-46; also called V46s; N31S

V3-1 Fab [32] = target: T28, V3-1 Fab; experiment: phage competition ELISA, ECD in solution
T28 construct: soluble Fab in SPR

V3-46s Fab [33] = target: T27, V3-46s Fab; experiment: phage competition ELISA, ECD in solution
V3-12 Fab = target: T29, V3-12 Fab; experiment: phage competition ELISA, ECD in solution
T29 construct: soluble Fab in SPR
T29 sequence (VH, as listed by the source, chain 1 of 2): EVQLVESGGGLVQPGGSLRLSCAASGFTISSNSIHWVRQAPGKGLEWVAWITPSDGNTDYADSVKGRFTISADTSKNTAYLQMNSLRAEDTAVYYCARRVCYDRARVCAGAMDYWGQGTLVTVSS
T29 sequence (VL, as listed by the source, chain 2 of 2): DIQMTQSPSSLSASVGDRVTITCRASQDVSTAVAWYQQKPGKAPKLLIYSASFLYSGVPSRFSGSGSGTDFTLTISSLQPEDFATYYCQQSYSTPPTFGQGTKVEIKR

V3-1 Fab [34] = target: T28, V3-1 Fab; experiment: phage competition ELISA, ECD in solution; remark: listed apart in the source
V3-11 Fab = target: T30, V3-11 Fab; experiment: phage competition ELISA, ECD in solution
T30 construct: soluble Fab in SPR
T30 sequence (VH, as listed by the source, chain 1 of 2): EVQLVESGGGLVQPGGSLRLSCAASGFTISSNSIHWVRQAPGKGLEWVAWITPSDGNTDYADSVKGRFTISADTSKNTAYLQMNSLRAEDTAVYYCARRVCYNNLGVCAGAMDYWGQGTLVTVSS
T30 sequence (VL, as listed by the source, chain 2 of 2): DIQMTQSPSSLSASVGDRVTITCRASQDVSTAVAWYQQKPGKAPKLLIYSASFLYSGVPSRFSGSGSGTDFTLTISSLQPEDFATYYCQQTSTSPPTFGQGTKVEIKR

V3-13 Fab = target: T31, V3-13 Fab; experiment: phage competition ELISA, ECD in solution
T31 construct: soluble Fab in SPR

V3-46s-42 Fab = target: T32, V3-46s-42 Fab; experiment: phage competition ELISA, ECD in solution (printed Phage50)
T32 construct: soluble Fab in SPR; also called V46s-42
T32 sequence (VH, as listed by the source, chain 1 of 2): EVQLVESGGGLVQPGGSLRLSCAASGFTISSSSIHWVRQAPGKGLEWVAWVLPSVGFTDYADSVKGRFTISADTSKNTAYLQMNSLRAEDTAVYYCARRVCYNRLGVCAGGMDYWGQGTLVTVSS
T32 sequence (VL, as listed by the source, chain 2 of 2): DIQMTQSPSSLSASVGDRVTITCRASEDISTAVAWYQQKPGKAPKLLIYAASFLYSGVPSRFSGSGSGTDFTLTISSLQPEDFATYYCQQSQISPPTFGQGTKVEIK

V3-46s-9 Fab = target: T33, V3-46s-9 Fab; experiment: as above
T33 construct: soluble Fab in SPR; also called V46s-9
T33 sequence (VL, as listed by the source, chain 2 of 2): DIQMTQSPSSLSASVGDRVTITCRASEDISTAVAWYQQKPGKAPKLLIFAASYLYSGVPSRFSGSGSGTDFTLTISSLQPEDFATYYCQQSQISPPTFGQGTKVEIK

V3-46s Fab [35] = target: T27, V3-46s Fab; experiment: as above
mouse BR3-Fc = target: T34, mouse BR3-Fc (mouse); experiment: ELISA: mBAFF-Flag titrated on coated mBR3-Fc, then F(ab)'2 phage #3 (V3) added and detected
T34 construct: (BR3 ECD fused to a murine Fc); also called mBR3-Fc; murine BR3-Fc
T34 chain: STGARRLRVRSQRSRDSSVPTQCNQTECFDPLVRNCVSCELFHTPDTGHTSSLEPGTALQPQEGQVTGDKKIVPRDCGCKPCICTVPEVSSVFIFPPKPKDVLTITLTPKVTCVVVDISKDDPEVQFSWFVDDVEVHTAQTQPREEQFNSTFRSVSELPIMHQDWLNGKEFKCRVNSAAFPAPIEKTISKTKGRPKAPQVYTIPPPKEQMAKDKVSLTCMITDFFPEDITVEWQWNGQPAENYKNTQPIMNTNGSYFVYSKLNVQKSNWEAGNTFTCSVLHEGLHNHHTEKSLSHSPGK

B1: V3-1m (antibody, mouse IgG2a, V domains shown)
VH: EVQLVESGGGLVQPGGSLRLSCAASGFTISSNSIHWVRQAPGKGLEWVAWITPSDGNTDYADSVKGRFTISADTSKNTAYLQMNSLRAEDTAVYYCARRVCYNRLGVCAGGMDYWGQGTLVTVSS
VL: DIQMTQSPSSLSASVGDRVTITCRASQDVSTAVAWYQQKPGKAPKLLIYSASFLYSGVPSRFSGSGSGTDFTLTISSLQPEDFATYYCQQSRITPPTFGQGTKVEIKR
notes: also called mV3-1; V3-1 (IgG)
Which results are given for B1?
IC50 [1]: 36.2 nM; EC50 [2]: 3.37 nM; IC50 (read off the curve) [3]: ~0.8 µg/mL; IC50 [4]: 2.47 nM; F value [5]: 0.7; F value [6]: 0.4; F value [7]: 0.6; F value [8]: 13; F value [9]: 2.4; F value [10]: 0.7; F value [11]: 0.6; F value [12]: 1.6; F value [13]: 0.9; F value [14]: 1.4; F value [15]: 14; F value [16]: 0.5; F value [17]: 21; F value [18]: 0.8; F value [19]: 92; F value [20]: 1.4; F value [21]: 98; F value [22]: 0.7; F value [23]: 0.1; F value [24]: 0.9; F value [25]: 8.7; Kd [26]: 1.56 nM; koff [26]: 0.000131 s⁻¹; kon [26]: 84000 M⁻¹ s⁻¹; Kd [27]: 0.64 nM; koff [27]: 0.000171 s⁻¹; kon [27]: 267000 M⁻¹ s⁻¹; IC50 (read off the curve) [28]: ~0.6 µg/mL; IC50 [29]: 8.9 nM; EC50 [30]: 4.3 nM

What does the source list for B2?
IC50 (V3-46 N31Q phage clone): 2.44 nM; IC50 (V3-46 phage clone): 1.42 nM; IC50 (V3-46 N31A phage clone): 2.89 nM; IC50 (V3-46s Fab [31]): 1.53 nM; IC50 (V3-1 Fab [32]): 5.4 nM; IC50 (V3-46s Fab [33]): 1.53 nM; IC50 (V3-12 Fab): 57 nM; IC50 (V3-1 Fab [34]): 5.4 nM; IC50 (V3-11 Fab): 8.4 nM; IC50 (V3-13 Fab): 33 nM; IC50 (V3-46s-42 Fab): 0.23 nM; IC50 (V3-46s-9 Fab): 0.18 nM; IC50 (V3-46s Fab [35]): 1.7 nM

B3: mBAFF-Flag protein (ligand, mouse, UniProt Q9WU72 127-309, looked up, not shown: small tags and cut ends)
chain: AFQGPEETEQDVDLSAPPAPCLPGCRHSQHDDNGMNLRNIIQDCLQLIADSDTPTIRKGTYTFVPWLLSFKRGNALEEKENKIVVRQTGYFFIYSQVLYTDPIFAMGHVIQRKKVHVFGDELSLVTLFRCIQNMPKTLPNNSCYSAGIARLEEGDEIQLAIPRENAQISRNGDDTFFGALKLL
How did the “IC50 (read off the curve)” value (mouse BR3-Fc) turn out when B3 was run?
Its value is about 2 nM.
